The experiment deals with T1, rabbit GH receptor (rabbit) (UniProt P19941).
T1 sequence (looked up): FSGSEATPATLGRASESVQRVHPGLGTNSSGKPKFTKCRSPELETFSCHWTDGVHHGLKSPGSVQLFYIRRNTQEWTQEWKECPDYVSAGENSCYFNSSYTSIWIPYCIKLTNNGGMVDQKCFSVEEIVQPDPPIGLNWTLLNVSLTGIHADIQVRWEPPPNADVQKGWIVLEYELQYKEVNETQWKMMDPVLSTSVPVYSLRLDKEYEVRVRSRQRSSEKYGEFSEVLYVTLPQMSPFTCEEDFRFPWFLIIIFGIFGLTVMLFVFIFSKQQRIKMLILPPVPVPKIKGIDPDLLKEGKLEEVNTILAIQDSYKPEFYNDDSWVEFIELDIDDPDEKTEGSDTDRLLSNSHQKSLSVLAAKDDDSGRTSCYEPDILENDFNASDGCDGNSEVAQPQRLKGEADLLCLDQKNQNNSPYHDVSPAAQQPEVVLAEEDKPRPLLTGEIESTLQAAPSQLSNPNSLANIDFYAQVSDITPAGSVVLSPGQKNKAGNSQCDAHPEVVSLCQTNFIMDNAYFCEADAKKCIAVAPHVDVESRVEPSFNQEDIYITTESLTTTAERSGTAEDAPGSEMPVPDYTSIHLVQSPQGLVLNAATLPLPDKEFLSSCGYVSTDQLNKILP
Briefly: cell-based or functional assay.

“And” between values parts separate entries of the source, which are not always exact repeats. Equal entries are not always repeated.

Turning to “wild-type rhGH (secreted from E. coli with the stII signal sequence) (from UniProt P01241 27-217) (ligand)”, the Mean EC50 (ng/ml), proliferation of GH-R4 cells (MTS) turned out to be 0.8 ng/mL.

“hGH cysteine mutein T3C, disulfide-linked homodimer (from UniProt P01241 27-217) (ligand)”: the Mean EC50 (ng/ml), proliferation of GH-R4 cells (MTS) was 1.4 ng/mL.

Consider “hGH cysteine mutein T148C (from UniProt P01241 27-217) (ligand)”, for which the Mean EC50 (ng/ml), proliferation of GH-R4 cells (MTS); T148C-lotA was 0.5 ng/mL and the Mean EC50 (ng/ml), proliferation of GH-R4 cells (MTS); T148C-lotB was determined as 2.5 ng/mL.

As for “PEG-S144C hGH (mono-PEGylated S144C) (from UniProt P01241 27-217) (ligand)”, the EC50 of single experiments, cell proliferation assay (Example 1) is 40 ng/mL and 45 ng/mL.

In turn, “hGH cysteine mutein S144C (from UniProt P01241 27-217) (ligand)” registered a Mean EC50 (ng/ml), proliferation of GH-R4 cells (MTS) of 1.6 ng/mL.

These data come from US20050026834A1.
